Columns and labels:
TFIIB [1] = biological target: T1, TFIIB (UniProt Q00403); experiment: BLI; conditions: BLI (ForteBio Octet QK), streptavidin sensors loaded with biotinylated DNA 25 ug/ml, 1x Kinetics Buffer (ForteBio); salt, pH and temperature not stated
T1 sequence: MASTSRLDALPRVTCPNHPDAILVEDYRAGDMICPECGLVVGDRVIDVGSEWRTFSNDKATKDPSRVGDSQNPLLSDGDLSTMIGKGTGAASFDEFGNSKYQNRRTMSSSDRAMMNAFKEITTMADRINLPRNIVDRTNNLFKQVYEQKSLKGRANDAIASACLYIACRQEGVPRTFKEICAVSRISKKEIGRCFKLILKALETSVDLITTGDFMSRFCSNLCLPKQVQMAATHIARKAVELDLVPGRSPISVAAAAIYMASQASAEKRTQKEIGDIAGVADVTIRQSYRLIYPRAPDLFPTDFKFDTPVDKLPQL

TFIIB [2] = biological target: TFIIB (UniProt Q00403 1-316); experiment: BLI; kon 3.03E+04 1/Ms; koff 1.93E-03 1/s; 270 nM TFIIB; BLI (ForteBio Octet QK), streptavidin sensors loaded with biotinylated DNA 25 ug/ml, 1x Kinetics Buffer (ForteBio); salt, pH and temperature not stated; conditions: protein: commercial; label: 5' biotin (one strand, PCR primer)

Q: With “TCGACGCGCGTATAACACGCGAGCGGTTCGAACGTTGGCGCGCTAACGCGAGTCGTACGCCCGTCAACGCGGATCAATCGCGCGACTTGTGCGCGACGTTAGACCGCCGATCGTCAAGCGCCGATCGGTAATCGGACGATTCGGATACGCGAGTTCGGACGTACGAGCGTGATACGGCGCGTAACGGTGCGCGTTAAAACGCCGACGCGTCATAACCGCGACTCGTCGACGC (double strand) [ArS232]” as the molecule, how does the Kd (TFIIB [1]) read?
A: 84.5 nM

Q: Which Kd (TFIIB [1]) does the source give for “AACGGTGCGCGTTAAAACGGCCGACGCGTCATAACCGCGACTCGTCGACGCAGCGCCGGCGTATAAGCGCGCCGTACGTCAACCGTCGACGTTAGTCCGACGATCGCGGCGTCTATACGCCGCGTCAATCGCGCGCGGTTCAACGTCGCGCTACGGGCGCGTATAAGTCGCGCGTATGGACCGCGTACGTCCTACGAGCGT (double strand) [ArS201]” here?
A: 77.6 nM

Q: How did the Kd (TFIIB [1]) turn out when “AACGGTGCGCGTTAAAACGCCGACGCGTCATAACCGCGACTCGTCGACGCAGCGCCGGCGTATAAGCGCGCCGTACGTCAACCGTCGACGTTAGTCCGACGATCGCGGCGTCTATACGCCGCGTCAATCGCGCGCGGTTCAACGTCGCGCTACGGGCGCGTATAAGTCGCGCGGTTAATACGCGCGGTGTACGCGGATGCCGGGGTCGCGTATAATCGGCGCGTATACCTCGCGCGTATACGCGGCGTATTACGGCCGCGTATAATTCGCGCGTATGGACCGCGTACGTCCTACGAGCGT (double strand) [ArS300]” was run?
A: 64.6 nM

B1: ArS110 (dsDNA)
DNA 1: CTACGCCGCGTAAATATCGCGCGCTAACGGTGCGCGTTAAAACGCCGACGCGTCATAAAGCGCCGGCGTATAAGCGCGCCGTACGTCGTCGAACCACGTTAGTCCGGACC
DNA 2: GGTCCGGACTAACGTGGTTCGACGACGTACGGCGCGCTTATACGCCGGCGCTTTATGACGCGTCGGCGTTTTAACGCGCACCGTTAGCGCGCGATATTTACGCGGCGTAG
Q: For B1, which Kd (TFIIB [2]) is on record?
A: 63.7 nM

— paper PMC3097237, “Exploiting Nucleotide Composition to Engineer Promoters”
